Measured values from PMC10326071.

Target: middle domain of human Paip1 (Paip1M) (human) (UniProt Q9H074)
Experiment: BLI; […]; 1x PBS pH 7.4, 0.1% surfactant P20, 0.1% BSA, 500 mM NaCl; 25 C; global fit, 1:1 model

Sequence of middle domain of human Paip1 (Paip1M) (human) (Q9H074 157-375): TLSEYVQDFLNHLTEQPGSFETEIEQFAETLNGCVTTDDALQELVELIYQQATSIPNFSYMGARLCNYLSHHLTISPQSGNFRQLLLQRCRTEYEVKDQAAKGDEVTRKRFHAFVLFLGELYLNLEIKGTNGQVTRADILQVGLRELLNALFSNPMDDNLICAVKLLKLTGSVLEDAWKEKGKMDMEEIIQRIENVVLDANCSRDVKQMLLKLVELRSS

“SARS-CoV-2 SUD-core-CC (domain or fragment)” showed a Kd of 7.2 µM.
